“And” between values parts separate entries of the source, which are not always exact repeats. Identical values can stand only once. Marks after values point to notes of the source that are not given here.
Experiment: Phase 1 (1a/1b) pharmacokinetics: plasma concentrations after single IV dose (validated direct fluorescence reader assay), noncompartmental analysis
Type: in vivo, human
Excerpt: Phase 1 is a single-Principal Investigator, non-randomized, open-label, single-arm, cross-sectional study to evaluate the safety, PK profile, and imaging feasibility of Compound 1 in patients with solid cancers who require surgical excision. The main purpose of this study was to investigate the safety, PK, and feasibility of Compound 1 as an intra-operative optical imaging agent to detect tumors and metastatic lymph nodes in solid cancers. The study was intended to investigate the optimal dose range of Compound 1 for an adequate TBR and CNR of fluorescence obtained intraoperatively at 24 (±8) hours post dosing and with ex vivo specimens using ICG compatible cameras and imaging devices.
Phase 1 enrolled 30 patients with solid cancers (HNSCC, breast cancer, esophageal cancer, or colorectal cancer) who have a biopsy-confirmed diagnosis of respective tumor types and are scheduled to undergo surgical resection of the tumor. The study design included a standard 3+3 design for the dose-escalation portion (Phase 1a; N=18 maximum) followed by a dose-expansion portion (Phase 1b; N=15). All patients received a single I.V. dose of Compound 1, followed by routine surgery approximately 24 hours after infusion of Compound 1.
Phase 1a was a dose-finding study performed in 5 cohorts of 3 patients each. The dose levels evaluated were […], and 1.2 mg/kg, in this sequence. Inter-cohort dose escalation took place after the last patient in the previous cohort completed the Day 10 safety assessment. Safety, PK, and imaging feasibility were evaluated in both the Phase 1a and 1b portions of the study. Patient safety is assessed during the study and for up to 10 days post-dose.
Study design: Single Compound 1 IV dose was administered as a 1-5 minute IV infusion to patients in five cohorts (0.1, 0.3, 0.5, 0.8, and 1.2 mg/kg) with three patients per cohort in Phase 1a and 15 patients at a dose of 1.2 mg/kg in Phase 1b. Patient demographic information including tumor types is presented in Table 4 and 5 for Phase 1a and Table 5 for Phase 1b. Intertek Pharmaceutical Services (San Diego, Calif.) determined Compound 1 plasma concentrations using a validated direct fluorescence reader assay. Pacific BioDevelopment (Davis, Calif.) performed the PK analysis.
Sample collection: Blood samples were collected prior to infusion and at 10 minutes and 0.5, 1, 3, 8, 24, 48, 72, and 240 hours after infusion.
Analysis: Plasma concentration versus time profiles were generated for each patient. Pharmacokinetic parameters were estimated using Phoenix WinNonlin (version 8.0). According to SOP, concentrations reported as BQL were set to 0 except for the 0.5 h sample for subject #ON1102, which was set to LLOQ/2 ([…] value used in parameter calculations) and the 24 and 48 h samples.
If the coefficient of determination for the terminal slope estimation was less than 0.8, T1/2 was not reported (NR). AUC extrapolated to infinity is not reported for any data set because in all cases the % extrapolated AUC was greater than 20% and thus the AUCinf estimate would not be reliable. The concentration at 10 minutes, the first time point measured (C10m), was also reported for each patient.
The area under the plasma concentration versus time curves from dosing to the last time point with a measurable concentration (AUClast) was estimated by the linear trapezoid method. The last three or more time points were used to estimate the elimination rate constant (λz) which was used to estimate the terminal-phase half-life (T1/2) and AUC from zero to infinity (AUCINF) from the following equations: […]

[1] = 1.2 mg/kg, HNSCC, individual subjects
[2] = Phase 1a, 0.3 mg/kg single IV, individual subject
[3] = Phase 1a, 0.3 mg/kg single IV, mean
[4] = Phase 1a, 0.3 mg/kg single IV, median
[5] = Phase 1a, 0.5 mg/kg single IV, individual subject

PEO90-140-b-P(DBA60-150-r-ICG0-3-r-AMA0-3) [Compound 1]
Cmax (1.2 mg/kg, HNSCC, Mean, N 7): 33600 ng/mL
Tmax (1.2 mg/kg, HNSCC, Mean, N 7): 1.14 h
T1/2 (1.2 mg/kg, HNSCC, Median, N 5): 42.6 h
AUC0-24 hr (1.2 mg/kg, HNSCC, Median, N 7): 565 µg·h/mL
AUCall (1.2 mg/kg, HNSCC, Median, N 7): 1160 µg·h/mL
AUClast (1.2 mg/kg, HNSCC, Median, N 7): 970 µg·h/mL
C10 m (1.2 mg/kg, HNSCC, Median, N 7): 30.3 µg/mL
Cmax (1.2 mg/kg, HNSCC, Median, N 7): 32400 ng/mL
Tmax (1.2 mg/kg, HNSCC, Median, N 7): 0.500 h
AUC0-24 hr [1]: 348 µg·h/mL and 563 µg·h/mL and 565 µg·h/mL and 520 µg·h/mL and 625 µg·h/mL and 730 µg·h/mL and 740 µg·h/mL
AUCall [1]: 348 µg·h/mL and 1160 µg·h/mL and 1100 µg·h/mL and 747 µg·h/mL and 2690 µg·h/mL and 2550 µg·h/mL and 2740 µg·h/mL
AUClast [1]: 184 µg·h/mL and 970 µg·h/mL and 957 µg·h/mL and 520 µg·h/mL and 1430 µg·h/mL and 1480 µg·h/mL and 1580 µg·h/mL
C10 m [1]: 28.0 µg/mL and 34.1 µg/mL and 28.5 µg/mL and 27.5 µg/mL and 30.3 µg/mL and 47.6 µg/mL and 31.3 µg/mL
Cmax [1]: 28000 ng/mL and 34100 ng/mL and 29900 ng/mL and 29200 ng/mL and 32400 ng/mL and 47600 ng/mL and 34300 ng/mL
T1/2 [1]: 32.5 h and 46.5 h and 42.6 h and 38.4 h and 46.8 h
Tmax [1]: 0.170 h and 1.00 h and 0.500 h and 3.00 h
AUC0-24h in relation to dose (Phase 1a and 1b, up to 1.2 mg/kg): appears to be dose proportional
Exposure in relation to dose (Phase 1a and Phase 1b combined): dose proportional
Measurability in subject plasma samples (Phase 1a, 0.1 mg/kg): not measurable
C10 m (Phase 1a, 0.1 mg/kg single IV, individual subject): 0.00 µg/mL
C10 m (Phase 1a, 0.1 mg/kg single IV, mean): 0.00 µg/mL
C10 m (Phase 1a, 0.1 mg/kg single IV, median): 0.00 µg/mL
Plasma Conc (Phase 1a, 0.100 mg/kg, 0.170 hr, individual subject): BQL (BQL (<10 μg/mL), set = 0 for PK analysis)
Plasma Conc (Phase 1a, 0.100 mg/kg, 0.170 hr, mean): 0.00 µg/mL
Plasma Conc (Phase 1a, 0.100 mg/kg, 0.500 hr, individual subject): BQL (BQL (<10 μg/mL), set = 0 for PK analysis)
Plasma Conc (Phase 1a, 0.100 mg/kg, 0.500 hr, mean): 0.00 µg/mL
Plasma Conc (Phase 1a, 0.100 mg/kg, 1.00 hr, individual subject): BQL (BQL (<10 μg/mL), set = 0 for PK analysis)
Plasma Conc (Phase 1a, 0.100 mg/kg, 1.00 hr, mean): 0.00 µg/mL
Plasma Conc (Phase 1a, 0.100 mg/kg, 3.00 hr, individual subject): BQL (BQL (<10 μg/mL), set = 0 for PK analysis)
Plasma Conc (Phase 1a, 0.100 mg/kg, 3.00 hr, mean): 0.00 µg/mL
Plasma Conc (Phase 1a, 0.100 mg/kg, 8.00 hr, individual subject): BQL (BQL (<10 μg/mL), set = 0 for PK analysis)
Plasma Conc (Phase 1a, 0.100 mg/kg, 8.00 hr, mean): 0.00 µg/mL
Plasma Conc (Phase 1a, 0.100 mg/kg, 24.0 hr, individual subject): BQL (BQL (<10 μg/mL), set = 0 for PK analysis)
Plasma Conc (Phase 1a, 0.100 mg/kg, 24.0 hr, mean): 0.00 µg/mL
Plasma Conc (Phase 1a, 0.100 mg/kg, 48.0 hr, individual subject): BQL (BQL (<10 μg/mL), set = 0 for PK analysis)
Plasma Conc (Phase 1a, 0.100 mg/kg, 48.0 hr, mean): 0.00 µg/mL
Plasma Conc (Phase 1a, 0.100 mg/kg, 72.0 hr, individual subject): BQL (BQL (<10 μg/mL), set = 0 for PK analysis)
Plasma Conc (Phase 1a, 0.100 mg/kg, 72.0 hr, mean): 0.00 µg/mL
Plasma Conc (Phase 1a, 0.100 mg/kg, 240 hr, individual subject): BQL (BQL (<10 μg/mL), set = 0 for PK analysis)
Plasma Conc (Phase 1a, 0.100 mg/kg, 240 hr, mean): 0.00 µg/mL
Mean AUC0-24h (Phase 1a, 0.3 mg/kg): 197 µg·h/mL
Mean C10 (Phase 1a, 0.3 mg/kg): 12 µg/mL
AUC0-24 hr [2]: 292 µg·h/mL and 4.68 µg·h/mL and 296 µg·h/mL
AUCall [2]: 437 hr*μg/mL and 4.68 hr*μg/mL and 2040^1 hr*μg/mL
AUClast [2]: 292 µg·h/mL and 3.43 µg·h/mL and 902 µg·h/mL
C10 m [2]: 10.7 µg/mL and 10.4 µg/mL and 14.8 µg/mL
Cmax [2]: 12500 ng/mL and 10400 ng/mL and 16500 ng/mL
Tmax [2]: 8.00 h and 0.170 h and 3.00 h
AUC0-24 hr [3]: 197 µg·h/mL
AUCall [3]: 826 µg·h/mL
AUClast [3]: 399 µg·h/mL
C10 m [3]: 12.0 µg/mL
Cmax [3]: 13100 ng/mL
Tmax [3]: 3.72 h
AUC0-24 hr [4]: 292 µg·h/mL
AUCall [4]: 437 µg·h/mL
AUClast [4]: 292 µg·h/mL
C10 m [4]: 10.7 µg/mL
Cmax [4]: 12500 ng/mL
Tmax [4]: 3.00 h
Plasma Conc (Phase 1a, 0.300 mg/kg, 0.170 hr, individual subject): 10.7 µg/mL and 10.4 µg/mL and 14.8 µg/mL
Plasma Conc (Phase 1a, 0.300 mg/kg, 0.170 hr, mean): 12.0 µg/mL
Plasma Conc (Phase 1a, 0.300 mg/kg, 0.500 hr, individual subject): 5.00^b μg/mL and 15.1 μg/mL
Plasma Conc (Phase 1a, 0.300 mg/kg, 0.500 hr, mean): 10.1 µg/mL
Plasma Conc (Phase 1a, 0.300 mg/kg, 1.00 hr, individual subject): 11.4 μg/mL and BQL (BQL (<10 μg/mL), set = 0 for PK analysis) and 12.9 μg/mL
Plasma Conc (Phase 1a, 0.300 mg/kg, 1.00 hr, mean): 8.10 µg/mL
Plasma Conc (Phase 1a, 0.300 mg/kg, 3.00 hr, individual subject): 12.0 μg/mL and BQL (BQL (<10 μg/mL), set = 0 for PK analysis) and 16.5 μg/mL
Plasma Conc (Phase 1a, 0.300 mg/kg, 3.00 hr, mean): 9.50 µg/mL
Plasma Conc (Phase 1a, 0.300 mg/kg, 8.00 hr, individual subject): 12.5 μg/mL and BQL (BQL (<10 μg/mL), set = 0 for PK analysis) and 11.2 μg/mL
Plasma Conc (Phase 1a, 0.300 mg/kg, 8.00 hr, mean): 7.90 µg/mL
Plasma Conc (Phase 1a, 0.300 mg/kg, 24.0 hr, individual subject): 12.1 μg/mL and BQL (BQL (<10 μg/mL), set = 0 for PK analysis) (2×)
Plasma Conc (Phase 1a, 0.300 mg/kg, 24.0 hr, mean): 6.05 µg/mL
Plasma Conc (Phase 1a, 0.300 mg/kg, 48.0 hr, individual subject): BQL (BQL (<10 μg/mL), set = 0 for PK analysis)
Plasma Conc (Phase 1a, 0.300 mg/kg, 48.0 hr, mean): 0.00 µg/mL
Plasma Conc (Phase 1a, 0.300 mg/kg, 72.0 hr, individual subject): BQL (BQL (<10 μg/mL), set = 0 for PK analysis) (2×) and 13.5 μg/mL
Plasma Conc (Phase 1a, 0.300 mg/kg, 72.0 hr, mean): 4.50 µg/mL
Plasma Conc (Phase 1a, 0.300 mg/kg, 240 hr, individual subject): BQL (BQL (<10 μg/mL), set = 0 for PK analysis)
Plasma Conc (Phase 1a, 0.300 mg/kg, 240 hr, mean): 0.00 µg/mL
Mean AUC0-24h (Phase 1a, 0.5 mg/kg): 289 µg·h/mL
Mean C10 (Phase 1a, 0.5 mg/kg): 17.3 µg/mL
AUC0-24 hr [5]: 314 µg·h/mL and 340 µg·h/mL and 213 µg·h/mL
AUCall [5]: 314 µg·h/mL and 1980 µg·h/mL and 213 µg·h/mL
AUClast [5]: 160 µg·h/mL and 969 µg·h/mL and 101 µg·h/mL
C10 m [5]: 22.0 µg/mL and 16.2 µg/mL and 13.6 µg/mL

Source: patent publication US20230025280A1, “PH RESPONSIVE COMPOSITIONS, FORMULATIONS, AND METHODS OF IMAGING A TUMOR” (ONCONANO MEDICINE, INC, priority 2019, published 2023)
